# Tests used:
# hnRNPG RRMmut = hnRNPG RRMmut (Homo sapiens, UniProt P38159 1-391, K9A;F11A;R49A;F51A;F53A); experiment: limited proteolysis protection
# hnRNPG wild-type [1] = biological target: T1, hnRNPG wild-type (Homo sapiens, UniProt P38159 1-391); experiment: limited proteolysis protection
# hnRNPG wild-type [2] = biological target: T1, hnRNPG wild-type; experiment: spin-down
# Sequence of hnRNPG RRMmut (P38159 whole entry K9A/F11A/R49A/F51A/F53A): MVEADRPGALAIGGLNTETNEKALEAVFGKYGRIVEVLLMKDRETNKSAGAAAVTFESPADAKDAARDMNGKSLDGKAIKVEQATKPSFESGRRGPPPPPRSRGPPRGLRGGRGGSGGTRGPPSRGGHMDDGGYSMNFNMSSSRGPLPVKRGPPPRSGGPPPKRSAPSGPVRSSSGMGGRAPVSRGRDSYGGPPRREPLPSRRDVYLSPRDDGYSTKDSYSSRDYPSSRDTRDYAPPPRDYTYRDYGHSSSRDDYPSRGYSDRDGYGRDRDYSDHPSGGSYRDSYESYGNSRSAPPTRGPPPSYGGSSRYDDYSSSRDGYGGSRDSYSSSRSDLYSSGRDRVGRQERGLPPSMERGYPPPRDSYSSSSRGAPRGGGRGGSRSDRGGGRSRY
# T1 sequence (P38159 whole entry): as the sequence (P38159 whole entry K9A/F11A/R49A/F51A/F53A) above, with A9K, A11F, A49R, A51F, A53F counted along it
Binder,binding result (hnRNPG RRMmut),binding result (hnRNPG wild-type [1]),binding result (hnRNPG wild-type [2])
SMN2exon7 RNA (ssRNA) RNA: GGUUUUAGACAAAAUCAAAAAGAAGGAAGGUGCUCACAUUCCUUAAAUUAAGGA,no binding,binds,
GGGUACGACGGAUAUCGUGGGGGGGGAAAUUGCUUUCGGUUCCGACUCUG (structured_RNA) [WEc RNA],no binding,binds,
AAUGUGAAGGACUUUCGUAACGGAAGUAAUUCAA (structured_RNA) [MALAT1 hairpin 2515-A],no binding,,binds
"AAUGUGAAGGACUUUCGUAACGGAAGUAAUUCAA (structured_RNA, m6A at position 11) [MALAT1 hairpin 2515-m6A]",no binding,,binds

# Reference: PMC6778029
